Measured values as given in US9802942B2, “Substituted 4-methyl-pyrrolo[1,2-A]pyrimidine-8-carboxamide compounds and uses thereof for modulating glucocerebrosidase activity” (Northwestern University, priority 2015, dated 2017).

T1: recombinant wild type GCase (Homo sapiens, UniProt P04062)
T1 construct: purchased Shire Human Genetic Therapies, Inc. Vpriv
T1 sequence (P04062 40-536): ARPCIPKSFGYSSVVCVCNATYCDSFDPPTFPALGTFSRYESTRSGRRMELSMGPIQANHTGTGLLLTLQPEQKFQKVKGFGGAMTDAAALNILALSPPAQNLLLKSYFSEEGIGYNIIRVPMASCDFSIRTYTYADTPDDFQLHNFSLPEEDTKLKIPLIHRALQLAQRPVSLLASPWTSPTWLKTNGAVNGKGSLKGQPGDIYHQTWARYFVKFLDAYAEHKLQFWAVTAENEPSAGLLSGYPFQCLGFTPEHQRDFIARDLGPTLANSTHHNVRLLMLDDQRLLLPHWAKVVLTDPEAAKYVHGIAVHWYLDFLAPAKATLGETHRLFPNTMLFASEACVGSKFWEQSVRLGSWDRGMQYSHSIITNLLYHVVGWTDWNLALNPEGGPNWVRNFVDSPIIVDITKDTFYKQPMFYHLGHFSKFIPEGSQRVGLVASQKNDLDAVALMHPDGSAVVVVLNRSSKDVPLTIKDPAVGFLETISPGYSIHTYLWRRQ


Key:
U937 macrophage cells = assay: U937 macrophage uptake assay; assay type: cell-based, human; settings: for activity compared to endogenous GC: PMA-induced U937 cells, 4MU-β-glc substrate
Description: Human monocyte cell line U937 was optimally differentiated into macrophages by the addition of 75 ng/ml PMA (Brumshtein, Salinas et al. 2010) to the monocyte culture for 3 days (in 75 cm^2 flasks). Macrophages were enriched by adhesion to the culture plate and identified by morphology and receptor staining.
The assay was carried out according to the reported method (Tekoah, Tzaban et al. 2013) with slight modification. The enzyme was treated with compound 4 or DMSO at pH 7.2 for 60 min as described above, then dialyzed with PBS. U937 cells, after differentiation (˜1.6*10^6 cells), were incubated with 60 μg/ml of the activated enzymes and wt. enzyme in F12K medium for 10 min at 5% CO2, 37° C. incubator. The cells were then washed twice with ice cold PBS enriched with Mannan (1 mg/ml). To further ensure release of any proteins bound non-specifically to the membrane half of the cells were washed with ice cold glycine buffer: (0.8% NaCl, 0.038% KCl, 0.01% MgCl2, 0.01% CaCl2, 0.7% glycine [pH 3]) followed by two additional cold PBS washes. The other half of the wells were used as controls for measuring total enzymatic activity (bound and internalized enzyme). The cells were lysed by adding β-glucocerebrosidase activity buffer (60 mM phosphate-citrate buffer; 0.15% Triton X-100; 0.125% sodium taurocholate, pH 5.5), followed by pipetting and one freeze/thaw cycle. The obtained lysates were subjected to determination of enzymatic activity using the colorimetric method detailed above. The total enzymatic activity was normalized to total soluble proteins as measured by Bradford assay. The effective uptake was calculated as the percentage of activity within the cells out of the total enzymatic activity of the controls.

[1] = target: T1, recombinant wild type GCase; assay: Covalent binding assay: activity of GCase activated by probe 4; assay type: biochemical; settings: natural substrate assay; covalent activation
Description: To the recombinant wild type enzyme (22 μM, 95 μL, 1 equiv) in 0.1 M phosphate buffer (pH 7.2) was added 2,5-dioxopyrrolidin-1-yl 3-(2-(2-(4-(4-(2,4-dimethylpyrrolo[1,2-a]pyrimidine-8-carboxamido)phenyl)-1H-1,2,3-triazol-1-yl)ethoxy)ethoxy)propanoate (4) in DMSO (0.89 mM, 5 μL, 2 equiv) in one portion, and was vortexed for 5 sec immediately. At indicated time points, the reaction solution (2 μL) was sampled and diluted (1:3125 dilution) into the assay buffer (50 mM citric acid, 176 mM K2HPO4, and 0.01% Tween-20 at pH 5.9). After 2 h the reaction solution was dialyzed three times with 0.1 M phosphate buffer (pH 7.2). The enzyme was adjusted to the same concentration and sampled for activity. The dilution solutions were assayed with three substrates, resorufin substrate, 4-MU substrate, and natural substrate using the method in Example 5 and Example 6 without adding compounds.
The probe 4 was subjected to the covalent binding assay against GCase. The reaction conditions, including the buffer pH value, the concentration of the protein and probe, and the reaction temperature were carefully adjusted to achieve the maximum activation. With the optimized reaction condition, the enzyme activity was activated in a time-dependent manner (FIG. 5). The enzyme could be activated by probe 4 with around 22 and 28 folds activity comparing to the wt. GCase in the 4MU-Glc substrate (FIG. 5A) and red substrate (FIG. 5B) enzyme activity assay respectively.

[2] = Enzyme stability assay in pH 4.7 buffer; assay type: physicochemical
From the text: To test whether probe 4 changed the enzyme stability of GCase, we used two environments for GCase activity stability assay (Tekoah, Tzaban et al. 2013). The first one was citrate/phosphorylate buffer, which was at pH 4.7. In this condition, the wt. GCase only had about 15% activity left on day 4 (FIGS. 6A and 6B), which is similar to the previous research (Tekoah, Tzaban et al. 2013). An interesting finding was that even on day 10, activated GCase still had more than 20% activity left. […] One possible reason for the higher enzyme activity in low pH buffer was that activated GCase was stabilized by the covalent compound, and was more difficult to unfold.

Row | Molecule | activity compared to endogenous GC (U937 macrophage cells) | protein uptake level (U937 macrophage cells; Western blot, activated GCase vs wt. GCase, in words) | activity improvement [1] [folds] | activity left ([2]; citrate/phosphate buffer pH 4.7, day 10) | activity left ([2]; citrate/phosphate buffer pH 4.7, day 4)
1 | activated GCase: recombinant wild type GCase covalent modified by probe 4 (NHS ester) on lysine residues, 1-3 ligands (conjugate, UniProt P04062 40-536, looked up, covalent probe 4 on lysines, recombinant wild type GCase covalent modified by probe 4 (NHS ester) on lysine residues, 1-3 ligands) Lysosomal acid …: ARPCIPKSFGYSSVVCVCNATYCDSFDPPTFPALGTFSRYESTRSGRRMELSMGPIQANHTGTGLLLTLQPEQKFQKVKGFGGAMTDAAALNILALSPPAQNLLLKSYFSEEGIGYNIIRVPMASCDFSIRTYTYADTPDDFQLHNFSLPEEDTKLKIPLIHRALQLAQRPVSLLASPWTSPTWLKTNGAVNGKGSLKGQPGDIYHQTWARYFVKFLDAYAEHKLQFWAVTAENEPSAGLLSGYPFQCLGFTPEHQRDFIARDLGPTLANSTHHNVRLLMLDDQRLLLPHWAKVVLTDPEAAKYVHGIAVHWYLDFLAPAKATLGETHRLFPNTMLFASEACVGSKFWEQSVRLGSWDRGMQYSHSIITNLLYHVVGWTDWNLALNPEGGPNWVRNFVDSPIIVDITKDTFYKQPMFYHLGHFSKFIPEGSQRVGLVASQKNDLDAVALMHPDGSAVVVVLNRSSKDVPLTIKDPAVGFLETISPGYSIHTYLWRRQ | more than 25 folds | equal | 16 | more than 20% | 
2 | wt. GCase: recombinant wt. enzyme velaglucerase alfa (Vpriv, Shire Human Genetic Therapies, Inc.) (protein, UniProt P04062 40-536, looked up, velaglucerase alfa) Lysosomal acid …: ARPCIPKSFGYSSVVCVCNATYCDSFDPPTFPALGTFSRYESTRSGRRMELSMGPIQANHTGTGLLLTLQPEQKFQKVKGFGGAMTDAAALNILALSPPAQNLLLKSYFSEEGIGYNIIRVPMASCDFSIRTYTYADTPDDFQLHNFSLPEEDTKLKIPLIHRALQLAQRPVSLLASPWTSPTWLKTNGAVNGKGSLKGQPGDIYHQTWARYFVKFLDAYAEHKLQFWAVTAENEPSAGLLSGYPFQCLGFTPEHQRDFIARDLGPTLANSTHHNVRLLMLDDQRLLLPHWAKVVLTDPEAAKYVHGIAVHWYLDFLAPAKATLGETHRLFPNTMLFASEACVGSKFWEQSVRLGSWDRGMQYSHSIITNLLYHVVGWTDWNLALNPEGGPNWVRNFVDSPIIVDITKDTFYKQPMFYHLGHFSKFIPEGSQRVGLVASQKNDLDAVALMHPDGSAVVVVLNRSSKDVPLTIKDPAVGFLETISPGYSIHTYLWRRQ | about 3 folds |  |  |  | about 15%
